Test: yeast display, Sf9 membrane polyspecificity reagent, FACS + sequencing; frameworks hold sequencing errors
Method in brief: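 Sorting gates, low and high (top ~1%), were placed on anti-HA fluorescence to track expression and on streptavidin fluorescence to track reagent binding. A clone's polyreactivity label is taken from the gate it came out of. The reagent was 10% biotinylated, detergent-solubilized Sf9 membrane, applied for 1 hour at 4 °C to galactose-induced yeast display cells.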

Row | Sequence | polyreactivity (PSR sort gate)
1 | QVQLVESGGGIVQAGGSLRLSCAASGIIIAVYAMGWYRQAPGKERELVAAISWSSGNTYYADSVKGRFTISRENAKNTVYLQMNSLNPEDTAVYYCAAVSRYKYDYWGQGTQVTVSS | high polyreactivity
2 | QVQLVESGGGLVQAGGSLSLSCAASGRIYYYAMGWYRQAPGKERELVAAITGRGGSTYYADSVKGRFTISRDNAKNRVYLQMNSLKPEDTAVYYCARAGCPRHDWGQGTQVTVSS | high polyreactivity
3 | QVQHVESGGGLVQAGGSLRISCAASGSILDGYAMGWYRQAPGKEREFVAAITWSGGRTYYADSVKGRFTISRDNAMNTVYLQMNSLKPEDTAVYYCIAVTGSWRYDFWGQGSQVTVSS | high polyreactivity
4 | QVQLVDSGGGLVQAGGSLRLSCAASGFTFNGYAMGWSRPAPGKEREFVAAISSSGGSTYYADSVKGRFTISRDNAKNTVYLQMNSLKPDDTAVYYCNAVGWRKKYDYWGQGTQVTVSS | high polyreactivity
5 | QVQLVESGGGLVQAGGSLRLSCAASGRIFQGYAMGWYRPAPGKERELGASIRTGGTTNYADSVKGRFTISRDNAKNTVYLQMNSLTPEDTAVYYCAKRYYGWYGNFDYWGQGTQVTVSA | high polyreactivity
6 | QVQLIESGGGLVKAGGSLRLSCAASGSIFYRNTMGWYRQAPGKERELVARISWSGGRTYYADSVKGRFTISRDNAKNTVYLQMNSLKPEDTAVYYCAASTYGQRGTSYGYWGQGTQVTVSS | low polyreactivity
7 | EEELVESGGGLVQAGGSLRLSCAASGRTFVYNAMGWYRQAPWKERELVAAITSGDSTYYADSVKGRFTISRDNAKNTVYLQMNSLKPEDTAVYYCATDYSGIFYWYDYWGQGTQVTVSS | low polyreactivity
8 | QVQIVESGRGLVQAGGSLRLSCAASGLTFARNAMGWSRPAPGKQRELVAAITSGASTTYADSVKGRITISRDNAMNTVSVQMNSLKPEDTAVYYCAAPGYWVRTYGGWSRLDYWGQGTQVTVSS | high polyreactivity
9 | QGQLVESGGGLVQAGGSLRLSCAASGSTFANYDMAWYRQAPGKERELVAAITSRGGSTYYADSVKGRFTISRDNAKNTVYLQMNSLKPEDTAVYYCAAVTRNQGSFRYYFWGQGTQVTVSS | high polyreactivity
10 | QVQLVESGGGLVQAGGSLRLSCAASGSIFTYYVMGWYRQAPGKERELVAAITISGGSTYYADSVKGRFTISRDNAKITVYLQMKSLKPEDTAVYYCAAEEVYYEADGFQYSYDYWGQGTLVTVSS | high polyreactivity
11 | QVQLVESGGGIVQAVGSLRLSCAASGFTFFYYAMGWYRQAPGKERELVATISWNGGTTYYADSVKGRFTISRDNAKNTVYLQMNSLKPEDTAVYYCNARYDWTYLYDAGLVPGWDYDYWGQGTQLTVSS | low polyreactivity
12 | QVQLVESGGGLVQAGGSLRLSCAASGSTFAANAMGWYRQAPGKERELVAAITGSGGGTYYADSVKGRFTISRDNAKNTVYLQMNSLKPEDTAVYYCNTYYYWQYDWGQGTQVTVSS | high polyreactivity
13 | QVQLVDSGGGLVQAGGSLRLSCAASGSTIPNYAMGWYRQAPGKERELVADIDSSGGSTYYADSVKGRFTISRDNAKNTVYLQMNSLKPEDTAVYYCAAGYFWYDVLNSRVLVWNNYWGQGTQVTVSS | high polyreactivity
14 | QVQREESGGGLVQAGGSLRLSCAASGRTFRYYAMGWSRQAPGKERELVAAITSGGGTNYADSVKGRFTISRDNAKNTVYLQMNSLKPEDTAVYYCAADHVYYDYDYWGQGTQVNVSS | low polyreactivity
15 | QVQLVESGGGLVQAGGSLRLSSAASGRTFYDYAMGWYRQAPGKERELVAAITYSGGSTFYADSVKGRFTISRDNAKNTVYLQMNSLTPEDTAVYYCAAEVLRLGGAAEYDYCGQGTQVTVSS | low polyreactivity
16 | QVQLVESGGGLVQAGGSLRLSCAASGSTFYYYAMGWYRQAPGKVRELVATISWSGDSTYADSVKGRFTISRDNAKNTVYLQMNSLKPEDTAVYYCATSGDWWGFRYVYWGQGTQVTVSS | low polyreactivity
17 | QVQLVESGGGLVQAGGSLRLSCAASGSTFSANTMGWYRQAPGKQREFVAAISSSGVGTRYADSVKGRFTISRDYAKNTVYLQMNSLKPEDTAVYYCAADYRPTVITRNDYWGQGTQVTVSS | low polyreactivity
18 | QVQLVESCGGLVQAGCSLRLSCAASGRTFAYNAMGWYRQAPGKERELVADITSGGSTYYADSVKGRFTISRDNAKNTVYLQMNSLKPEDTAVYYCAAYPQFWYWDYNYWGQGTQVTVSS | high polyreactivity
19 | QVQLVESGGGLVQAGGSLRLSCAASGSIFDPYAMGWYRQAPGKETELDAAITASGSSTYYADSVKGRFTISRDNAKNTVYLQMNSLKPEDTAVYYCAADRANWEYLLSWLGYDYWGQGTQVTVSS | low polyreactivity
20 | QVQLVESVGGLDQAGGSLPVSCAASGLTFTGYTMGWYRQAPWKERELVATISGSGGNTDYADSVKARFTISRDKAKNTVDLQMNSLKPEDTAVYYCASRRSGPLVLYYYWGQGTQVTVSS | low polyreactivity
21 | QVQLVESGGGLVQAGGSLRLSCAASGLTFWTNTMGWSRQAPGKERELVATISSGGGTYYADSVKGRFTISRDNAKNTVYLQMNSLKPEDTAVYYCAAKRKRYFVGYYYWGQGTQVTVSS | low polyreactivity
22 | QVQLVESGGGLVQAGGSLRLSCAASGNTFWGNAMGWYRQAPGKERELVATISASAGSTYYADSVKGRFTISRDNAKNTVYLQMNSLKPDDTAVYYCAKTALRYLKHGRTKGDYWGQGTQVTLSS | low polyreactivity

Row | Sequence | polyreactivity (PSR sort gate)
23 | QVQLVESGGGLVQAGGSLRLSCAASGSTFSRYAMGWYRPAPGKERELVAAITRSGGGTHYADSVKGRFTISRDNAKNTVYLQMNSLKPEETAVYYCAKRQSGYRYDYWGQGTEVTVSS | low polyreactivity
24 | QVQLVESGGGLVQAGGSLRLSCAASGYTFFYMGSYRQAPGKEREFVAVITYSGGSTYYADSVKGRFTISRDNAKNTVYLQLNSLKPEDTAVYYCAAAVWHYGRPGYLDSGYDYWGQGTQVTVSS | low polyreactivity
25 | QVQLVESGGGLVQAGGSLRLSCAASGRIFGDNAMGWYRQAPGKEREFVATINGSGGSTYYADSVKGRFTISRDNAKNTVYLQMNSLKPEDTAVYYCFVQQNYGYDYWGQGTQVTVSS | low polyreactivity
26 | QVQLVESGGGLVQAGGSLRLSCAASGRTFLINAMGWYRQAPGKEREMVAAITQSGGSTYYADSVKGRFTISRDNAKYTVYLQMNSLKPEDTAVYNCNATPDSVRWDYALSVVRYEYWGQGTQVTVSS | low polyreactivity
27 | QVQLVESGGGLVQAGGSLRLSCAASGSIFYSYAMGWYRQAHGKERELVAAITSGDITYYADSVKGRFTISRDNAKNTVYLQMNSLKPEDTAVYYCAAESYAWWDKQFLYRYDYWGQGTQVTVSS | low polyreactivity
28 | QVQLVESGGGLVQAGGSLRLSCAASVRSFRWYTMGWYRQAPGKERELVATISWRGGSTSYADSVKGRFTISRDNAKNTVYLQMNSLKPEDNAVYYCNAVYLWWAYDYWGQGTQVTVSS | high polyreactivity
29 | QVQHVESGGGLVQAGGSLRLSCAASGSTFWRYAMGWYRQAPGKERELVAAISTSGGSTRYADSVKGRFTISRDNAKNTVYFQMKSLKPEDTEVYYCADRSVSSTSYGYWGQGTQVTVSS | high polyreactivity
30 | QVQLVESGGGLVQAGGSLRLSCAASGSTFRYYAMGWYRQAPGKERELVAAISRRGGSSYYADSVKGRFTISRDNAKKTVYLQMNSLKPEDTAVYYCNAAASTFTSWIRGPGVCYDYWGQGTQVTVSS | high polyreactivity
31 | QVQLVESGVGLVQAGGSLRLSCAASGFIFWLYAMGWYRQAPGKERELVAGITRGGGSTYYADSVKRRFTISRDNAKNTVYLQMNSLKPEDTAVYYCAADAWSSYLDRPFDYWGQGTQVTVSS | high polyreactivity
32 | QVQLVESGGGLVQAGGTLRLSWAASGSNFGFYTMGWYRLAPGKERELVAAITWSDSSTYADSVKGRYTISRDNAKNTVYLQMNSLKPEDTAVYYCNADTTTVEYYPFHYYTYDYWGQGTQVTVSS | low polyreactivity
33 | QVQLVESGGGLVQAGGSLRLSCAASGFTFVGYAMGWYRQEPGKERELVAAISTRGGSTYYADSVKGRFTISRDNAKNTDYLQMNSLKPEDTAVYYCNARGAKRGLLSYYWGQGTQVTVSS | high polyreactivity
34 | QVQLQESGGVLVQAGGSLRLSCAASGNILDADIMGWYRQAPGKERELVASITDGGSTNYADSVKGRFTISRDNAKNTVYLQMNSLKPEDTAVYYCAAIAYPDIPTYFDYDSEYFYWGQGTQVTVSS | low polyreactivity
35 | QVQLVESGGGLVQAGGSLRLSCAASGRTFYKYGMGWYRQAPGKERELVAAISWRTTSTYYADSVKGRFTISRDNAKNTVYLQMNSLKPEDTAVYYCNARRYLYFYGRGAQELDYWGQGTQVTVSS | high polyreactivity
36 | QVQLVESGGGLVQAGGSLRLSCAASGSIFRSNGMGWYREAPGKERELVAAITSSGGSTYYADTVKGRFTISRDNAKNTVYLHMNSLKPEDTAVYYCAKRWNWSYNYWGQGTQVTVSS | high polyreactivity
37 | QVQLVESGGGLVQAGGSLRLSCAASGYIFRYNAMGWYRQAPGKERELVAAIRATGGSTYYADSVKGRFTISRDNAKNTVSLQMNSLKPEDTAVYYCNAGGQGRTYRYYYWGQGTQVTVSS | high polyreactivity
38 | QVQLVESGGGLVQAGGSLRLSCAASGRTFSRNAMGWYRQAPGKERELVATITSDGSTNYADSVKGRFTISRDNAKNTVYLQMNSLKPEDTAVYYCAAGEQSSIIGAHDYWGQGTQVTVSS | low polyreactivity
39 | QVQLVESGGGLVQAGGSLRLSCAASGIIFYPYAMGWYRQAPGKERELVADITSGGGTNYADSVKGRFTISRDNAKNTVYLHMNSLKREDTAVYYWAAEVRGYHWGTYYEFYYWGQGTQVTVSS | low polyreactivity
40 | QVQLVESGGGLVQAGGSLRLSCAASGRILPYNVMGWFRQARGKEREFVAAITGSGGDTYYADSVKGRFTISRDNAKNTVYLQMNSLKPEDTAVYYCAAAPYIGGSFGQTPGSGYWGQGTQVTVSS | low polyreactivity
41 | QVQIVESGGGLVQAGGSLRLSCAASGRTFVVNAMGWYRQAPGKERELVASISNKGSTYYADSVKGRFTISRDNAKNTVYLQMNSLNPEDTAVYYCAADEYWSWDGTRYGVHYYYWGQGTQVTVSS | low polyreactivity
42 | QVQLVESGGGLFQAGGSLSLSCAASGFIFYTNAMGWYRQAPGKERELVATITTSGGRTYYADSVKGRFTISRDNAKNTVFLQMNSLKPEDTAVDYCATRYVVIEYDYWGQGTQVTVSS | low polyreactivity
43 | QVQLVESGGGLVQAGGSLRLSCAASGRIFSYAMGWYRQAPGKERELVAAINWSGDSTYYADSVKGRFTISRDNAKNTVYLQMNSLKPEDTAVYYCNAVSAYWGAYGYWGQGTQVTVSS | high polyreactivity

From the nanobody polyreactivity screen of Harvey et al. (2022)
